Laboratory results as given in US20240132603A1 (HARBOUR BIOMED US, published 2024).

Columns and labels:
[1] = target: T1, cynomolgus monkey CCR8 (cynomolgus monkey, UniProt G7NYJ2 1-355); assay: KinExA, cell line overexpressing monkey CCR8; monkey CCR8 cell line
T1 construct: whole, on cells; also called CynoCCR8
Description: (§1) To 200 mg of PMMA hard beads was added 30 μg of Goat Anti-Human IgG Fc antibody, and the mixture was supplemented with a coating solution to 1.0 mL, with a buffer composition of 1×PBS, pH7.4, to ensure that the beads were completely suspended in the solution. After being spun at room temperature for 2 h, the beads were either allowed to settle naturally or centrifuged briefly at low speed, and the supernatant was removed. 1 mL of blocking buffer (1×PBS, pH7.4, containing 10 mg/mL BSA) was added to ensure that the beads were resuspended in the blocking solution, and the beads were spun at room temperature for 1 h. An appropriate concentration of PR005565, PR006155 or PR006166 was used as the 100% signal value, and PBS blank was used as the background value. The net signal values were detected using 0.5 μg/mL Alexa Fluor® 647 Goat Anti-Human IgG. The cell line overexpressing human or monkey CCR8 was collected by centrifugation at 1500 g for 5 min, washed 2 times with 2 PBS and centrifuged at 350 g. The cells were collected in a 1.5 mL centrifuge tube. 10 mL of 0.2 nM PR005565, PR006155 or PR006166 solution was prepared. The total cells were supplemented with 0.2 nM PR005565, PR006155 or PR006166 solution to 0.82 mL, and diluted in a 2-fold gradient with 0.2 nM PR005565, PR006155 or PR006166 as a buffer. […]

[2] = target: T2, CD40LG (UniProt P29965 1-261); assay: flow cytometry, transfected HEK293 cells
T2 construct: whole, on cells; also called HEK293-CD40LG
T2 sequence (looked up): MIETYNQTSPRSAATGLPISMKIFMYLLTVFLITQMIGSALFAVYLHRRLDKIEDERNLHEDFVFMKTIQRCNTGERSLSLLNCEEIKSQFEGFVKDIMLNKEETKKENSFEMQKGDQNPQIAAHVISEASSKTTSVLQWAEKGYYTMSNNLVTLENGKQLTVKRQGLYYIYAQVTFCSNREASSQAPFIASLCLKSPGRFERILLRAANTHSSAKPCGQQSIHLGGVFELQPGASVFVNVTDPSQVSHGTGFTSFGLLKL
Description: (§2) After that, HEK293 cells were transfected with commercial MMP16 (protein information can be found under Uniprot P51512), CD40LG (protein information can be found under Uniprot P29965), CD147 (protein information can be found under Uniprot P35612), TSPAN4 (protein information can be found under Uniprot 014817), and TSPAN12 (protein information can be found under Uniprot 095859) plasmids for further verification of the binding of PR005565, PR006275 and PR006276 to these proteins. […] However, the binding values of PR005565, PR006275 and PR006276 to MMP16, CD40LG, CD147, TSPAN4 and TSPAN12 after transfection of HEK293 cells were all consistent with the signal values of HEK293 cells themselves. Thus, PR005565, PR006275 and PR006276 had no non-specific binding to MMP16, CD40LG, CD147, TSPAN4 and TSPAN12 proteins (see Table 50).

[3] = target: T3, TSPAN12-FLAG (UniProt O95859 1-305); assay: flow cytometry, transfected HEK293 cells
T3 construct: whole, on cells; order of protein and tag unknown; also called HEK293-TSPAN12; not shown: FLAG tag
T3 sequence (looked up): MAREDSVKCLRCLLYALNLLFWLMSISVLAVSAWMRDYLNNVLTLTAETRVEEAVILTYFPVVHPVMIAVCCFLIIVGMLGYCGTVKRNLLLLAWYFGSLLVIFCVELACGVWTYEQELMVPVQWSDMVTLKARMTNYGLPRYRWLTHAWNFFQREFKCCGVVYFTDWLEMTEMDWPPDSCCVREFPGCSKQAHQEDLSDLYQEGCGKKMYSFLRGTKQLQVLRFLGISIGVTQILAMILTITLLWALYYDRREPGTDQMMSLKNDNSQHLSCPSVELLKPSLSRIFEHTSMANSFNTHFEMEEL
Description: as §2

[4] = target: T4, TSPAN4-FLAG (UniProt O14817 1-238, limits assumed); assay: flow cytometry, transfected HEK293 cells
T4 construct: whole, on cells; order of protein and tag unknown; also called HEK293-TSPAN4; not shown: FLAG tag
T4 sequence (looked up): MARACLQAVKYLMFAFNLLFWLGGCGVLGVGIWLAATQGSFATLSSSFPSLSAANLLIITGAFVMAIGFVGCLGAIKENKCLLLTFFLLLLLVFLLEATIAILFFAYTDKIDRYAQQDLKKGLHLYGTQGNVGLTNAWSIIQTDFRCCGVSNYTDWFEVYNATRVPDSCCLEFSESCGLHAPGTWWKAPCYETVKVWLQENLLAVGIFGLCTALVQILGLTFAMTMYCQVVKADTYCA
Description: as §2

[5] = target: T5, MMP16 (UniProt P51512 120-607); assay: flow cytometry, transfected HEK293 cells
T5 construct: whole, on cells; also called HEK293-MMP16
T5 sequence (P51512 120-607): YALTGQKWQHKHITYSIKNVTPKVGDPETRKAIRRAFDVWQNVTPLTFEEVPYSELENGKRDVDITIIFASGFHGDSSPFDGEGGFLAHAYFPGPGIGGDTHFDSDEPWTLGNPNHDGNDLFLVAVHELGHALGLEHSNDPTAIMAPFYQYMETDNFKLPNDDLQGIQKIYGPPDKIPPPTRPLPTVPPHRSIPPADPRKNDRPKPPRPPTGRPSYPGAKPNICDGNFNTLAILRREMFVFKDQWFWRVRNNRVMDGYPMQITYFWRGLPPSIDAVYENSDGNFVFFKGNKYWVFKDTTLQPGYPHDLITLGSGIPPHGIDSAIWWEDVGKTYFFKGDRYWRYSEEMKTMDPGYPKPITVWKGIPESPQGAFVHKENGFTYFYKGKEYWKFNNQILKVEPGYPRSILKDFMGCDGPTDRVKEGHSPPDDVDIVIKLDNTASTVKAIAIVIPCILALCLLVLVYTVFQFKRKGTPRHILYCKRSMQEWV
Description: as §2

[6] = target: T6, human CCR8 (human, UniProt P51685 1-355); assay: KinExA, cell line overexpressing human CCR8; human CCR8 cell line
T6 construct: whole, on cells; construct used for the overexpressing cell lines is not described; also called hCCR8
T6 sequence (P51685 whole entry): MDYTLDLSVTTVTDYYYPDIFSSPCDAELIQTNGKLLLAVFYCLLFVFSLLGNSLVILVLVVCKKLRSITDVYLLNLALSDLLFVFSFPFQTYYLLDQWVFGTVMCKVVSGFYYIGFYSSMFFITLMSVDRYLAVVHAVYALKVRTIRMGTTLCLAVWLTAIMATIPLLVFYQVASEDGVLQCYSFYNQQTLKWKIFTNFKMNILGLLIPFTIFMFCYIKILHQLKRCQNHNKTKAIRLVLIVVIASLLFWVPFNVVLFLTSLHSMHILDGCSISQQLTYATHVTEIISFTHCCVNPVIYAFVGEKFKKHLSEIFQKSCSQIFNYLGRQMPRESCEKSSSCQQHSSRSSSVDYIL
Description: as §1

T1 sequence (G7NYJ2 entry or part of it): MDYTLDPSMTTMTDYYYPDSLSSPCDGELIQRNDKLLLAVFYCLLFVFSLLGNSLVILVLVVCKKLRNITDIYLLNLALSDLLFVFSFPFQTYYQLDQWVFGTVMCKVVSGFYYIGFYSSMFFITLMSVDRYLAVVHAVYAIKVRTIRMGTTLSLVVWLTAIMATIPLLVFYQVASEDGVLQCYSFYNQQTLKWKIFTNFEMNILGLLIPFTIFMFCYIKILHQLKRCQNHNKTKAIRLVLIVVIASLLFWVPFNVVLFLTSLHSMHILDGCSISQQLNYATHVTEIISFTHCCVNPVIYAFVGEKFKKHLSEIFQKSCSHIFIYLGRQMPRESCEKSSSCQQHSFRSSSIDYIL

B1: PR005565 (antibody, human IgG1, kappa)
heavy: not shown
light: DIVMTQSPLSLPVTLGQPASISCRSSKSLLHSNAKIYLYWFQQRPGQSPRLLIYRMSNLASGVPDRFSGSGSGTDFTLKISRVEAEDVGVYYCMQHLEYPLTFGQGTKLEIKRTVAAPSVFIFPPSDEQLKSGTASVVCLLNNFYPREAKVQWKVDNALQSGNSQESVTEQDSKDSTYSLSSTLTLSKADYEKHKVYACEVTHQGLSSPVTKSFNRGEC
notes: IgG1 constant region; same VH/VL as PR004666
Which Kd [1] does the source give for B1 here?
Its Kd is 0.177 nM.

Does B1 bind [2]?
Result: no binding

Does B1 bind [3]?
Result: no binding

Does B1 bind [4]?
Result: no binding

Does B1 bind [5]?
Result: no binding

And the Kd [6]?
The Kd was 0.13 nM.
